Laboratory results taken from patent publication US20200181677.

Legend:
[1] = tested on: peptide #14 (PKCα pseudosubstrate), alanine-containing
[2] = tested on: peptide #11 (Optimized PKCβ Sub.), alanine-substituted, in PKCα FRET sensor
[3] = tested on: peptide #14, aspartic acid-containing (phosphomimetic)

Substance: human PKCα catalytic domain
- ATP turnover of the catalytic domain for serine-containing peptide #14 with equimolar competitor peptide [1]: the alanine-substituted peptide was significantly better at inhibiting catalytic activity
- basal kinase activity of the sensor (10 nm vs 30 nm ER/K linker) for the same substrate peptide [1]: the sensor with the 30 nm linker had significantly higher activity than the 10 nm linker for the same substrate peptide
- kinase activity of the 10 nm peptide FRET sensor for the same substrate [2]: the higher affinity peptide sensor (#11) had a much lower activity than the lower affinity peptide sensor (#8)
- ATP turnover of the catalytic domain for serine-containing peptide #14 with equimolar competitor peptide [3]: the alanine-substituted peptide was significantly better at inhibiting catalytic activity
